This is an account of results in the supplement of paper PMC5998384.

Data set [1] concerns HeLa Kyoto. Description: solubility change mitosis vs G1/S (difference of NP-40 vs SDS log2 ratios) (log2 ratio difference); higher = more soluble in mitosis.
Data set [2] concerns HeLa Kyoto. Description: thermal stability score vs G1/S (z-score of summed log2 fold changes over temperatures); higher = more thermally stable than in G1/S.
In data set [3] the test system is HeLa Kyoto. Description: melting temperature (median over replicates), in situ; higher = more thermally stable.
Data set [4] relates to HeLa Kyoto. In words: solubility in G1/S (NP-40 vs SDS abundance) (log2 ratio); higher = more soluble. Particulars: cell cycle stage: G1/S.
Setting [5] is: cell cycle stage: early G1 (4.5 h after nocodazole release).
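Throughout, for melting temperature (median over replicates), in situ: HeLa Kyoto cells synchronized by double thymidine or nocodazole block, proteins quantified by TMT10plex mass spectrometry, three independent biological replicates.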
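Throughout, for solubility change mitosis vs G1/S (difference of NP-40 vs SDS log2 ratios): synchronized HeLa Kyoto cells (double thymidine block for G1/S, nocodazole release for mitosis), protein amounts in NP-40 versus SDS lysates quantified by mass spectrometry, three biological replicates.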
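Throughout, for solubility in G1/S (NP-40 vs SDS abundance): HeLa Kyoto cells arrested at G1/S by double thymidine block, proteins quantified by TMT10plex mass spectrometry in mild NP-40 versus SDS extracts, three biological replicates.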
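Throughout, for thermal stability score vs G1/S (z-score of summed log2 fold changes over temperatures): synchronized HeLa Kyoto cells, proteins quantified by TMT10plex mass spectrometry, three biological replicates, mitosis taken 0.5 h after nocodazole release, G1/S directly after double thymidine block.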

With “MRRKEKRLLQAVALVLAALVLLPNVGLWALYRERQPDGTPGGSGAAVAPAAGQGSHSRQKKTFFLGDGQKLKDWHDKEAIRRDAQRVGNGEQGRPYPMTDAERVDQAYRENGFNIYVSDKISLNRSLPDIRHPNCNSKRYLETLPNTSIIIPFHNEGWSSLLRTVHSVLNRSPPELVAEIVLVDDFSDREHLKKPLEDYMALFPSVRILRTKKREGLIRTRMLGASVATGDVITFLDSHCEANVNWLPPLLDRIARNRKTIVCPMIDVIDHDDFRYETQAGDAMRGAFDWEMYYKRIPIPPELQKADPSDPFESPVMAGGLFAVDRKWFWELGGYDPGLEIWGGEQYEISFKVWMCGGRMEDIPCSRVGHIYRKYVPYKVPAGVSLARNLKRVAEVWMDEYAEYIYQRRPEYRHLSAGDVAVQKKLRSSLNCKSFKWFMTKIAWDLPKFYPPVEPPAAAWGEIRNVGTGLCADTKHGALGSPLRLEGCVRGRGEAAWNNMQVFTFTWREDIRPGDPQHTKKFCFDAISHTSPVTLYDCHSMKGNQLWKYRKDKTLYHPVSGSCMDCSESDHRIFMNTCNPSSLTQQWLFEHTNSTVLEKFNRN [GALNT10]”, the “solubility change mitosis (log2)” value in the data set with HeLa Kyoto [1] was -0.0786. In addition, the thermal stability score with HeLa Kyoto [2] (setting [5]) turned out to be 0.401; in the data set with HeLa Kyoto [2] (cell cycle stage: mitosis), 0.507. Further, the melting temperature in the data set on HeLa Kyoto [3] (cell cycle stage: G1/S) is 49.9 °C; in the data set on HeLa Kyoto [3] (cell cycle stage: mitosis) it was 52.5 °C. Also, in the data set with HeLa Kyoto [4], the “solubility in G1/S (log2)” value was -0.106.

In the case of “MAVDITLLFRASVKTVKTRNKALGVAVGGGVDGSRDELFRRSPRPKGDFSSRAREVISHIGKLRDFLLEHRKDYINAYSHTMSEYGRMTDTERDQIDQDAQIFMRTCSEAIQQLRTEAHKEIHSQQVKEHRTAVLDFIEDYLKRVCKLYSEQRAIRVKRVVDKKRLSKLEPEPNTKTRESTSSEKVSQSPSKDSEENPATEERPEKILAETQPELGTWGDGKGEDELSPEEIQMFEQENQRLIGEMNSLFDEVRQIEGRVVEISRLQEIFTEKVLQQEAEIDSIHQLVVGATENIKEGNEDIREAIKNNAGFRVWILFFLVMCSFSLLFLDWYDS [STX18]”, in the data set with HeLa Kyoto [1], the “solubility change mitosis (log2)” value is -0.0525. Besides, the results for the thermal stability score with HeLa Kyoto [2] (setting [5]) and with HeLa Kyoto [2] (cell cycle stage: mitosis) were 0.0563 and -0.262, respectively. For the same sequence, the results for the melting temperature with HeLa Kyoto [3] (cell cycle stage: G1/S) and with HeLa Kyoto [3] (cell cycle stage: mitosis) were 50.1 °C and 50.8 °C, respectively. Moreover, the “solubility in G1/S (log2)” value with HeLa Kyoto [4] is 0.186.

Take “MAAAVAAAGRLGWLFAALCLGNAAGEAAPGPRVLGFCLEEDGAAGAGWVRGGAARDTPDATFLLRLFGPGFANSSWSWVAPEGAGCREEAASPAGEWRALLRLRLRAEAVRPHSALLAVRVEPGGGAAEEAAPPWALGLGAAGLLALAALARGLQLSALALAPAEVQVLRESGSEAERAAARRLEPARRWAGCALGALLLLASLAQAALAVLLYRAAGQRAVPAVLGSAGLVFLVGEVVPAAVSGRWTLALAPRALGLSRLAVLLTLPVALPVGQLLELAARPGRLRERVLELARGGGDPYSDLSKGVLRCRTVEDVLTPLEDCFMLDASTVLDFGVLASIMQSGHTRIPVYEEERSNIVDMLYLKDLAFVDPEDCTPLSTITRFYNHPLHFVFNDTKLDAVLEEFKRGKSHLAIVQKVNNEGEGDPFYEVLGLVTLEDVIEEIIRSEILDESEDYRDTVVKRKPASLMAPLKRKEEFSLFKVSDDEYKVTISPQLLLATQRFLSREVDVFSPLRISEKVLLHLLKHPSVNQEVRFDESNRLATHHYLYQRSQPVDYFILILQGRVEVEIGKEGLKFENGAFTYYGVSALTVPSSVHQSPVSSLQPIRHDLQPDPGDGTHSSAYCPDYTVRALSDLQLIKVTRLQYLNALLATRAQNLPQSPENTDLQVIPGSQTRLLGEKTTTAAGSSHSRPGVPVEGSPGRNPGV [CNNM3]”: the “solubility change mitosis (log2)” value in the data set with HeLa Kyoto [1] was -0.00872. Besides, the figures for the thermal stability score in the data set with HeLa Kyoto [2] (setting [5]) and in the data set on HeLa Kyoto [2] (cell cycle stage: mitosis) were -0.222 and -0.298, respectively. Also, the melting temperature in the data set with HeLa Kyoto [3] (cell cycle stage: G1/S) turned out to be 52.3 °C; in the data set on HeLa Kyoto [3] (cell cycle stage: mitosis) it was 51.3 °C. Besides, in the data set with HeLa Kyoto [4], the “solubility in G1/S (log2)” value was determined as 0.0405.

With “MITSELPVLQDSTNETTAHSDAGSELEETEVKGKRKRGRPGRPPSTNKKPRKSPGEKSRIEAGIRGAGRGRANGHPQQNGEGEPVTLFEVVKLGKSAMQSVVDDWIESYKQDRDIALLDLINFFIQCSGCRGTVRIEMFRNMQNAEIIRKMTEEFDEDSGDYPLTMPGPQWKKFRSNFCEFIGVLIRQCQYSIIYDEYMMDTVISLLTGLSDSQVRAFRHTSTLAAMKLMTALVNVALNLSIHQDNTQRQYEAERNKMIGKRANERLELLLQKRKELQENQDEIENMMNSIFKGIFVHRYRDAIAEIRAICIEEIGVWMKMYSDAFLNDSYLKYVGWTLHDRQGEVRLKCLKALQSLYTNRELFPKLELFTNRFKDRIVSMTLDKEYDVAVEAIRLVTLILHGSEEALSNEDCENVYHLVYSAHRPVAVAAGEFLHKKLFSRHDPQAEEALAKRRGRNSPNGNLIRMLVLFFLESELHEHAAYLVDSLWESSQELLKDWECMTELLLEEPVQGEEAMSDRQESALIELMVCTIRQAAEAHPPVGRGTGKRVLTAKERKTQIDDRNKLTEHFIITLPMLLSKYSADAEKVANLLQIPQYFDLEIYSTGRMEKHLDALLKQIKFVVEKHVESDVLEACSKTYSILCSEEYTIQNRVDIARSQLIDEFVDRFNHSVEDLLQEGEEADDDDIYNVLSTLKRLTSFHNAHDLTKWDLFGNCYRLLKTGIEHGAMPEQIVVQALQCSHYSILWQLVKITDGSPSKEDLLVLRKTVKSFLAVCQQCLSNVNTPVKEQAFMLLCDLLMIFSHQLMTGGREGLQPLVFNPDTGLQSELLSFVMDHVFIDQDEENQSMEGDEEDEANKIEALHKRRNLLAAFSKLIIYDIVDMHAAADIFKHYMKYYNDYGDIIKETLSKTRQIDKIQCAKTLILSLQQLFNELVQEQGPNLDRTSAHVSGIKELARRFALTFGLDQIKTREAVATLHKDGIEFAFKYQNQKGQEYPPPNLAFLEVLSEFSSKLLRQDKKTVHSYLEKFLTEQMMERREDVWLPLISYRNSLVTGGEDDRMSVNSGSSSSKTSSVRNKKGRPPLHKKRVEDESLDNTWLNRTDTMIQTPGPLPAPQLTSTVLRENSRPMGDQIQEPESEHGSEPDFLHNPQMQISWLGQPKLEDLNRKDRTGMNYMKVRTGVRHAVRGLMEEDAEPIFEDVMMSSRSQLEDMNEEFEDTMVIDLPPSRNRRERAELRPDFFDSAAIIEDDSGFGMPMF [STAG1]”, the “solubility change mitosis (log2)” value in the data set on HeLa Kyoto [1] is 0.0363. Also, the thermal stability score in the data set with HeLa Kyoto [2] (setting [5]) is -0.0959; in the data set on HeLa Kyoto [2] (cell cycle stage: mitosis) it was -1.71. Besides, the melting temperature is 52 °C with HeLa Kyoto [3] (cell cycle stage: G1/S) and 50.6 °C with HeLa Kyoto [3] (cell cycle stage: mitosis). Besides, in the data set on HeLa Kyoto [4], the “solubility in G1/S (log2)” value is -0.226.

As for “MANQVNGNAVQLKEEEEPMDTSSVTHTEHYKTLIEAGLPQKVAERLDEIFQTGLVAYVDLDERAIDALREFNEEGALSVLQQFKESDLSHVQNKSAFLCGVMKTYRQREKQGSKVQESTKGPDEAKIKALLERTGYTLDVTTGQRKYGGPPPDSVYSGVQPGIGTEVFVGKIPRDLYEDELVPLFEKAGPIWDLRLMMDPLSGQNRGYAFITFCGKEAAQEAVKLCDSYEIRPGKHLGVCISVANNRLFVGSIPKNKTKENILEEFSKVTEGLVDVILYHQPDDKKKNRGFCFLEYEDHKSAAQARRRLMSGKVKVWGNVVTVEWADPVEEPDPEVMAKVKVLFVRNLATTVTEEILEKSFSEFGKLERVKKLKDYAFVHFEDRGAAVKAMDEMNGKEIEGEEIEIVLAKPPDKKRKERQAARQASRSTAYEDYYYHPPPRMPPPIRGRGRGGGRGGYGYPPDYYGYEDYYDDYYGYDYHDYRGGYEDPYYGYDDGYAVRGRGGGRGGRGAPPPPRGRGAPPPRGRAGYSQRGAPLGPPRGSRGGRGGPAQQQRGRGSRGSRGNRGGNVGGKRKADGYNQPDSKRRQTNNQQNWGSQPIAQQPLQQGGDYSGNYGYNNDNQEFYQDTYGQQWK [HNRNPR]”, the “solubility change mitosis (log2)” value in the data set with HeLa Kyoto [1] is 0.234. Further, the thermal stability score with HeLa Kyoto [2] (setting [5]) is 2.99; in the data set with HeLa Kyoto [2] (cell cycle stage: mitosis), 8.2. Moreover, the values for the melting temperature in the data set with HeLa Kyoto [3] (cell cycle stage: G1/S) and with HeLa Kyoto [3] (cell cycle stage: mitosis) were 47.8 °C and 49.4 °C, respectively. Besides, in the data set on HeLa Kyoto [4], the “solubility in G1/S (log2)” value is -0.12.
